Earlier results, collected in patent US7531621B1, “PTH2 receptor selective compounds” (Societe de Conseils de Recherches et d'Applications …, priority 1999, dated 2009).

What was measured:
PTH/PTHrP receptor = molecular target: T1, PTH/PTHrP receptor (Homo sapiens, UniProt Q03431); conditions: result in words, background
T1 sequence (Q03431 27-593): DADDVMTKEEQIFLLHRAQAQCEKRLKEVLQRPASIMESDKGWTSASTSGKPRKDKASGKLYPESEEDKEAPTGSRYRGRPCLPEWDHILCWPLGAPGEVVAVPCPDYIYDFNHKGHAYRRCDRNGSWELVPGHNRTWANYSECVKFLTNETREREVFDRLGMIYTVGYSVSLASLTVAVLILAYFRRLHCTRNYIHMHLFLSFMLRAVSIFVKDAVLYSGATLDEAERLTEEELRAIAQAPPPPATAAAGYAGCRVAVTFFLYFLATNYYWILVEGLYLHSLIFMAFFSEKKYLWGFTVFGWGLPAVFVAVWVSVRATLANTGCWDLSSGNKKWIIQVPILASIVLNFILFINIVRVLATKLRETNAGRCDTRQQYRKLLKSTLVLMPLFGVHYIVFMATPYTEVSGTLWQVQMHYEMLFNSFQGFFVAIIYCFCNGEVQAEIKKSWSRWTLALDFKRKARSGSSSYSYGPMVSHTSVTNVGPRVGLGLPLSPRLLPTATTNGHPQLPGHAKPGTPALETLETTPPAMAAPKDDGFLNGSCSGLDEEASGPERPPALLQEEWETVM

PTH2 receptor = PTH2 receptor (Homo sapiens, UniProt P49190); conditions: result in words, background
PTH2 receptor, sequence (P49190 25-550): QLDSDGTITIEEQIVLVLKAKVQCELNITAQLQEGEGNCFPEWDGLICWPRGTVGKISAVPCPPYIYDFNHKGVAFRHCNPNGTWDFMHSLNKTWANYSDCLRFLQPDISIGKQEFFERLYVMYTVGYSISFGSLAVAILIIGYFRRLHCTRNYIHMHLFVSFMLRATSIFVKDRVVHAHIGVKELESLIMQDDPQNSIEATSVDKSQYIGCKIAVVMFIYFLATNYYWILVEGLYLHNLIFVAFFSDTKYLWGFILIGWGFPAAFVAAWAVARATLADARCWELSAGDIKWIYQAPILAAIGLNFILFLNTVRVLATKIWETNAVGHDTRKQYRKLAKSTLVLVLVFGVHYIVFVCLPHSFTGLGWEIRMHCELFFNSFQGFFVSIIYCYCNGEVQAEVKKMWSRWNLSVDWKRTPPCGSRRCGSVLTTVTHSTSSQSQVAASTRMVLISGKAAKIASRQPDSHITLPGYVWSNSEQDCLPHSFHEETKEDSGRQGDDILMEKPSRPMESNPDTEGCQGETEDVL

Substance | binding and activation of the PTH/PTHrP receptor (PTH/PTHrP receptor) | activation of the PTH2 receptor (PTH2 receptor)
Ile^5-PTHrP-(1-34) NH2 | binds and activates both receptors | acts as a PTH-2 receptor agonist
PTH-(1-34) | binds and is activated by both | selectively activated
PTHrP (7-34) | – | weakly activate
